Data on one substance can be found in US20250223358A1.

The target in this test is human CD3 (human) (UniProt P07766). The test is described as follows: cell-based or functional assay.

Where “and” joins values, the source holds several entries; their conditions need not be identical. Identical values can stand only once.

Chain of human CD3 (human) (P07766 23-207, chain 1 of 3): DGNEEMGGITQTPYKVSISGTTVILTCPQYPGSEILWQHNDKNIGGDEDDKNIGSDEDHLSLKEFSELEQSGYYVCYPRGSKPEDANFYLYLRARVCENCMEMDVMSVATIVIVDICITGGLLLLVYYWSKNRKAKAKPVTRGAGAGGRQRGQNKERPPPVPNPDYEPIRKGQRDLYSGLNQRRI
Chain of human CD3 (human) (P04234 22-171, chain 2 of 3, further chain): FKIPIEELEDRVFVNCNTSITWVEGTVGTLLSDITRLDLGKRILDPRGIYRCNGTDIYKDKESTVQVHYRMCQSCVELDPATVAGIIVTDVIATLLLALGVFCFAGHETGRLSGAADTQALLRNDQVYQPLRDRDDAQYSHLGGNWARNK
Chain of human CD3 (human) (P09693 23-182, chain 3 of 3, further chain): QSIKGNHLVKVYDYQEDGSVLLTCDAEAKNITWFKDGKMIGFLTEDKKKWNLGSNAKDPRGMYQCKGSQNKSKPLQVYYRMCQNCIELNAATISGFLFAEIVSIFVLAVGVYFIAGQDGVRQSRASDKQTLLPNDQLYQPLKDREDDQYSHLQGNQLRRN

For Isotype control (antibody), the RLU (Jurkat-NFAT-luciferase activation, antibody coated at 50 ug/mL), Plate 1 is 564 RLU and 582 RLU; the RLU (Jurkat-NFAT-luciferase activation, antibody coated at 50 ug/mL), Plate 2 was 386 RLU and 380 RLU; the RLU (Jurkat-NFAT-luciferase activation, antibody coated at 50 ug/mL), Plate 3 is 237 RLU and 231 RLU.
